How the values were obtained:
[1] = test system: RNA polymerase holoenzyme (Escherichia coli); settings: CITED; cited from earlier work
EcoRI E111Q E111Q = settings: CITED F17; cited from earlier work
LacI = LacI (UniProt P03023); settings: CITED F24; cited from earlier work
EcoRI = settings: CITED F17; cited from earlier work
Mlh1-Pms1 = Mlh1-Pms1 (Saccharomyces cerevisiae, UniProt P38920;P14242 P38920:1-769,P14242:1-873); experiment: EMSA; 25 mM Hepes pH 7.6, 50 mM NaCl, RT; QD/antibody labelling did not disrupt binding; settings: tags: FLAG inserted after T448 or Y499 of Mlh1 and/or HA after D565 of Pms1, anti-tag quantum dots; chain copies: heterodimer (stated); label: 5'-32P
Chain of Mlh1-Pms1 (P38920 whole entry, chain 1 of 2): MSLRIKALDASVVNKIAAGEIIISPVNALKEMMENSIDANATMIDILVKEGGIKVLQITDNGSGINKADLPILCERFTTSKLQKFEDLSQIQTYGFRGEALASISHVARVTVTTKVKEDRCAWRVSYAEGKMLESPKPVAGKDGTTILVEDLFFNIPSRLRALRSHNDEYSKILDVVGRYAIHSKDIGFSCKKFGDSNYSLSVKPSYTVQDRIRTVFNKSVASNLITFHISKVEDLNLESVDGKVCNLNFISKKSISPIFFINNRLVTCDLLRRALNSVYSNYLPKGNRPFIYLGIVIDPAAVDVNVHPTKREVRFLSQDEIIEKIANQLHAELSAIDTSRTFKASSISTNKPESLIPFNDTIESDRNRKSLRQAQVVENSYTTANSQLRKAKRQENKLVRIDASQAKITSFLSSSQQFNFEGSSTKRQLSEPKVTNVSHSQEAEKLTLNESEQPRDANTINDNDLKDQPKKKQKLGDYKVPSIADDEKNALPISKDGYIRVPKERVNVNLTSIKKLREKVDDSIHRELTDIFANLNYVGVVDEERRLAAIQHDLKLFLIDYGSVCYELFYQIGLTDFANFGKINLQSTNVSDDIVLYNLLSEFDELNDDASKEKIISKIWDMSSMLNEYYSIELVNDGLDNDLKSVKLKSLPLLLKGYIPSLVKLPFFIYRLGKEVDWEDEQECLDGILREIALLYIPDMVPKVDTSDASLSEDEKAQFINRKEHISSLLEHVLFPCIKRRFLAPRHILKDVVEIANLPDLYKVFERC
Chain of Mlh1-Pms1 (P14242 whole entry, chain 2 of 2): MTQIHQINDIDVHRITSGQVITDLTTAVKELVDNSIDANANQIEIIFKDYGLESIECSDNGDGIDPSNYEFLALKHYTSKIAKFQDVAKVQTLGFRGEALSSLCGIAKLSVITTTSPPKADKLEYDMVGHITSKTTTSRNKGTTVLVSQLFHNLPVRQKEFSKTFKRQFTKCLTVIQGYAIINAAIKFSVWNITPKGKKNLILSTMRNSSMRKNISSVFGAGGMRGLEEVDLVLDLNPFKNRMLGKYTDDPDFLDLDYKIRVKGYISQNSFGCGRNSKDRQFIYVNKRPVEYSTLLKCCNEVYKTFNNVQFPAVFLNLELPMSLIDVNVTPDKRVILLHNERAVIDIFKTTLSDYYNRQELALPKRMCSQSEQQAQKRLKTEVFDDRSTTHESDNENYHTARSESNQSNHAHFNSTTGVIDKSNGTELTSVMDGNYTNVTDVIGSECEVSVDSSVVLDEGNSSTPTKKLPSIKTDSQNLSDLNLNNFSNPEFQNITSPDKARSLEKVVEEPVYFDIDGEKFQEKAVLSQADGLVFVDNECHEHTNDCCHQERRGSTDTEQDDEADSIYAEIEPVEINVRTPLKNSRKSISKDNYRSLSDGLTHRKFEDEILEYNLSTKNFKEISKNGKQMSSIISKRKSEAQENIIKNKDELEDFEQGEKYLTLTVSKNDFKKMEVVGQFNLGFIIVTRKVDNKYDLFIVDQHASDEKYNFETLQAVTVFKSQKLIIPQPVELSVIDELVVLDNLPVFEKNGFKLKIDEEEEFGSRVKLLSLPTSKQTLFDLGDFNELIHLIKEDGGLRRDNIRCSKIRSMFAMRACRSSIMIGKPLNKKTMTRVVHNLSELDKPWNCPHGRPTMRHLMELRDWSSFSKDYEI
Experimental: Ensemble characterization of Mlh-Pms1 DNA-binding activity. […] Samples were loaded on 4% (w/v) non-denaturing polyacrylamide gels containing 0.5×TBE and electrophoresed at 130 V for 1 hour at RT. Gels were dried on 3mM Whatman paper and visualized by Phosphorlmaging. Analysis was done using ImageJ.

Chain of LacI (P03023 whole entry): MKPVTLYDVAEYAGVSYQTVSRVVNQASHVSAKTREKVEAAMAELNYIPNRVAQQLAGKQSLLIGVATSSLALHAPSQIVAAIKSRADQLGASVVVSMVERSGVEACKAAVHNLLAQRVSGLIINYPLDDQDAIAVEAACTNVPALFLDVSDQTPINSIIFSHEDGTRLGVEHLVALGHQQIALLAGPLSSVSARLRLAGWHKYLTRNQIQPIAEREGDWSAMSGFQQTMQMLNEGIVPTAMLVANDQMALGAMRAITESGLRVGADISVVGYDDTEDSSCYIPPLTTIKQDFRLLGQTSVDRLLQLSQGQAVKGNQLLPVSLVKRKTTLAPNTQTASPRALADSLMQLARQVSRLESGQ

Molecule	Kd [1] [pM]	Kd (EcoRI E111Q E111Q) [pM]	other results
lambda PR promoter	10		
lambda PL promoter	100		
nonspecific DNA		4.8	Kd (LacI): > 1000 pM
EcoRI cognate site DNA		0.0025	Kd (EcoRI): 6.7 pM
40 bp S1/S2 duplex (dsDNA) DNA 1: ACCGAATTCTGACTTGCTAGGACATCTTTGCCCACGTTGA DNA 2: TCAACGTGGGCAAAGATGTCCTAGCAAGTCAGAATTCGGT			binding result (Mlh1-Pms1): binds
